# Data from US11999794B2, “Human mesothelin chimeric antigen receptors and uses thereof” (Novartis AG, priority 2013, dated 2024).
# Residue numbers refer to the chain shown, from its start. Entries after “also recorded” stand apart in the source; their conditions may differ.
# B1: M5: human anti-mesothelin scFv SEQ ID NO: 43; full CAR SEQ ID NO: 67 (protein)
# scFv: QVQLVQSGAEVEKPGASVKVSCKASGYTFTDYYMHWVRQAPGQGLEWMGWINPNSGGTNYAQKFQGRVTMTRDTSISTAYMELSRLRSDDTAVYYCASGWDFDYWGQGTLVTVSSGGGGSGGGGSGGGGSGGGGSDIVMTQSPSSLSASVGDRVTITCRASQSIRYYLSWYQQKPGKAPKLLIYTASILQNGVPSRFSGSGSGTDFTLTISSLQPEDFATYYCLQTYTTPDFGPGTKVEIK
# B2: M11: human anti-mesothelin scFv SEQ ID NO: 49; full CAR SEQ ID NO: 73 (protein)
# scFv: B1 scFv with V5Q, E12K, D31G, K63N, S84R, V138R
# Columns and labels:
# [1] = target: T1, biotinylated mesothelin ECD (Homo sapiens, UniProt Q13421); assay: Surface plasmon resonance (Biacore T200) binding affinity of purified scFvs; conditions: for Kd: 1:1 Binding or Steady State Affinity fit
# T1 construct: made in house; host or cells: HEK293F (transient)
# T1 sequence (Q13421 with tags, fused parts or gaps): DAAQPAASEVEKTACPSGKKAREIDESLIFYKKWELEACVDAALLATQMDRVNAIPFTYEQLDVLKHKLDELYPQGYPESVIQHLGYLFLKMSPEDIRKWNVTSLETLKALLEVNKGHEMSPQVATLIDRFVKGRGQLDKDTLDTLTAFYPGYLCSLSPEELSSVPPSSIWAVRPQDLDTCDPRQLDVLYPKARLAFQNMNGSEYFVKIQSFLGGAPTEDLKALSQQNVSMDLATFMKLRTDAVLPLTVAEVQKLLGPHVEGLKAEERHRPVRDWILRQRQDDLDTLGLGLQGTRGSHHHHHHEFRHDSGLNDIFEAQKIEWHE
# Protocol: Binding affinity of purified scFvs was measured on a Biacore T200 system. Briefly, recombinant human biotinylated mesothelin ECD was immobilized on a streptavidin (SA) sensor chip surface at a density of 150 RU. Purified scFv was injected over the chip under constant flow rate at three-fold serial dilutions. Association and dissociation rates of the protein complex were monitored for 270 seconds and 400 seconds, respectively. Double referencing was performed against a blank immobilized flow cell and a buffer blank. Affinity was determined with a Langmuir 1:1 binding model when possible, for those scFVs where accurate fitting was not possible due to fast on and off rates, the steady state model was used.
# [2] = target: T1, biotinylated mesothelin ECD; assay: SPR relative epitope binning in comparison to SS1; assay type: binding; conditions: 50 nM SS1 captured first, then scFv at 100 nM
# Protocol: In embodiments, the competition assay is an SPR-based assay. Briefly, the antigen, e.g., human mesothelin, is immobilized on a surface. Through a microflow system, a reference antibody is injected over the antigen layer. Upon binding of the reference antibody to the antigen, an increase in signal, typically expressed in response units (RU) is detected, e.g., reference signal. After a desired time, a test antibody is injected over the antigen layer. If the test antibody binds to a different region or epitope of the antigen, then an additional increase in signal is detected, e.g., a 5% or more, 10% or more, 15% or more, 20% or more, 25% or more, 30% or more, 35%, or more, 40% or more, 45% or more, 50% or more, 55% of more, 60% or more, 65% or more, 70% or more, 75% or more, 80% or more, 85% or more, 90% or more, or 95% or more increase in signal, e.g., RU, as compared to the highest signal detected upon binding of the reference antibody, e.g., the reference signal. If the test antibody binds to the same region or epitope of the antigen, then little or no increase in signal, e.g., RU, will be detected, e.g., less than 20%, less than 15%, less than 10%, less than 5%, less than 4%, less than 3%, less than 2%, or less than 1% increase in signal, e.g., RU, as compared to the highest signal detected upon binding of the reference antibody, e.g., the reference signal. When using this SPR-based competition assay, an antibody is said to compete with the reference antibody when less than 20%, less than 15%, less than 10%, less than 5%, less than 4%, less than 3%, less than 2%, or less than 1% increase in signal, e.g., RU, is detected when compared to the reference signal detected upon binding of the reference antibody to the antigen. An antibody is said to not compete, or compete poorly, with a reference antibody when a 5% or more, 10% or more, 15% or more, 20% or more, 25% or more, 30% or more, 35%, or more, 40% or more, 45% or more, 50% or more, 55% of more, 60% or more, 65% or more, 70% or more, 75% or more, 80% or more, 85% or more, 90% or more, or 95% or more increase in signal, e.g., RU, is detected when compared to the reference signal detected upon binding of the reference antibody to the antigen.
# To determine the relative binding epitope of each of the scFvs in comparison to SS1, 50 nM SS1 was captured by biotinylated mesothelin ECD immobilized on a streptavidin sensor chip at a contact time of 180 seconds resulting in a relative density of 70 RU. Purified scFv at 100 nM (M5, M11, M12, M14, M16, M17, M21, or M23) was then immediately injected over the chip to minimize dissociation of the SS1/mesothelin complex. Binding of the secondary scFv was monitored for 270 seconds.
# [3] = tested on: Ovcar8, SW1990 and Panc0203; assay: IFNγ production of CART-MSLN (CBA-Flex), endogenous MSLN; assay type: cell-based, human; conditions: for IFNγ levels compared with the other CARTs: cancer cells endogenously expressing MSLN
# Protocol: Plots from 20 hour flow-based killing assays using titrating Effector to Target (E:T) ratios with effector CART-MSLN cells targeting CSFE labeled K562 (FIG. 3A. non-expressing MSLN controls) and K562-Meso (FIG. 3B, K562 cells transduced to express MSLN). […] For measuring cytokine production of human scFv bearing CART-MSLN, cells were thawed and allowed to recover overnight. In addition to the humanized CART-MSLN, the SS1 CART-MSLN (murine scFv) was used for comparative purposes. CD19-BBz CART was used as a non-targeting control for background CART cell effect. SS1 CART-MSLN was used in all assays to compare assay variation. The T cells were directed towards K562, a chronic myelogenous leukemia cell line (both MSLN+ and MSLN), the MLSN-expressing ovarian cancer cell line Ovcar8, and the pancreatic cancer lines SW1990 and Panc0203. When analyzing MSLN expression by flow cytometry, we detected 10-fold lower expression of MSLN on Ovcar8 compared to MSLN+K562 cells; SW1990 expressed 10-fold less than Ovcar8. […] In addition, PMA/Ionomycin was used to evaluate the potential of T cells to respond to the endogenous immunological signals. The assay tests only an effector:target ratio of 1:1. The assay is run for 24 hours after mixing of the cells, when the media is removed for cytokine analysis using the IFN-γ CBA-Flex kit for human cytokine detection.
# Background levels of cytokine produced from CART-MSLN cells after exposure to the control K562 cells not expressing MSLN were analyzed. […] Differences were dealt with by normalizing the specific IFNγ release over the maximum release (PMA/Ionomycin).
# [4] = tested on: Ovcar8; assay: Ovcar8 xenograft model (Example 8); assay type: in vivo, NSG mice; conditions: 2×10^6 CART cells i.v. at day 14
# Protocol: Anti-tumor activity of CART-MSLN was assessed in vivo in an Ovcar8 xenograft model. 10×10^6 Ovcar8 cells were implanted subcutaneously on day 0 in NSG mice. At day 14, 2×10^6 CART cells (CARTs expressing M5, M11, M17, M21, SS1, and CD19, or untransduced cells; 10×10^6 total T cells) in a 100 μl dose was administered intravenously. Mice and tumors were monitored for about 40 days after tumor cell implantation.
# A second in vivo xenograft experiment was performed to assess the anti-tumor activity of a second set of CART-MSLN cells. 10×10^6 OVCAR8-mcherry cells were injected into NSG mice. Once tumors were 150-250 mm^2, mice were randomized into treatment groups. CARTs expressing M12, M14, M16, M23, ss1, CD19, or untreated cells were injected at a dose of 10×10^6 T cells in 100 μl. About 40% of T cells were expressing CAR, and therefore at the administered dosage, about 4×10^6 CART cells were delivered to each animal.
Molecule,ka ([1]; 1:1 Binding fit) [M⁻¹ s⁻¹],kd ([1]; 1:1 Binding fit) [s⁻¹],Kd [1] [nM],relative epitope binning against SS1 on human mesothelin [2],"IFNγ response to cancer cells endogenously expressing MSLN ([3]; E:T 1:1, 24 hours)",IFNγ levels compared with the other CARTs [3],"anti-tumor activity, first xenograft experiment [4]"
B1,42000,0.00113,26.9,bind to a different epitope than SS1; also recorded: bind to a unique epitope,responded,superior IFNγ levels,strong anti-tumor activity
B2,,,64.7,bind to a different epitope than SS1; also recorded: bind to a unique epitope,,superior IFNγ levels,strong anti-tumor activity
